Laboratory results reported in patent publication US20200408765A1 (Sanofi, published 2020).

Target: human CD38 (human, UniProt P28907 1-300)
Assay: cell-based or functional assay

B1: chimeric 38SB31 (antibody, V domains shown)
VH: DVKLVESGGGLVKPGGSLKLSCEASGFTFSSYTLSWVRQTPETRLEWVATISIGGRYTYYPDSVEGRFTISRDNAKNTLYLQMNSLKSEDTAMYYCTRDFNGYSDFWGQGTTLTVSS
VL: DTVMTQSHKFISTSVGDRVSITCKASQVVGSAVAWYQQKPGQSPKLLIYWASTRHTGVPDRFTGSGSGTDFTLTISNVQSEDLADYFCQQYNSYPYTFGGGTKLEIKR
CDC: specific viability of Daudi cells with 1.25 µg/mL or higher antibody and complement: 53%
